In patent US20230406935A1 (F STAR THERAPEUTICS, published 2023):
Changes are numbered by the printed parent chain. Like-named read-outs stand apart in the source and are kept apart here.

How the values were obtained:
[1] = biological target: T1, Human PD-L1 expressed on cells (human, UniProt Q9NZQ7 19-290); assay: cell-based or functional assay
[2] = biological target: T2, Human CD80 expressed on HEK 293 cells (human, UniProt P33681 35-288); assay: flow cytometry on HEK 293 cells
T2 construct: also called hCD80
T2 sequence: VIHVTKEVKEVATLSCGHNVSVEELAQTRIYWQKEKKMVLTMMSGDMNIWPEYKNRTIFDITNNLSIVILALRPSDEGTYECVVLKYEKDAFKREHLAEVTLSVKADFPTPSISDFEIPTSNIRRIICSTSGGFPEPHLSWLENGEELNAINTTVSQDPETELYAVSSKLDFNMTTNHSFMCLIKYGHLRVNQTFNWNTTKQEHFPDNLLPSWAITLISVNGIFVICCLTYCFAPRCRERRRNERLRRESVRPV

[3] = biological target: Mouse PD-L1 expressed on HEK 293 cells (mouse, UniProt Q9EP73 19-290); assay: flow cytometry on HEK 293 cells
[4] = biological target: T3, Mouse CD80 expressed on HEK 293 cells (mouse, UniProt Q00609 38-306); assay: flow cytometry on HEK 293 cells
T3 sequence: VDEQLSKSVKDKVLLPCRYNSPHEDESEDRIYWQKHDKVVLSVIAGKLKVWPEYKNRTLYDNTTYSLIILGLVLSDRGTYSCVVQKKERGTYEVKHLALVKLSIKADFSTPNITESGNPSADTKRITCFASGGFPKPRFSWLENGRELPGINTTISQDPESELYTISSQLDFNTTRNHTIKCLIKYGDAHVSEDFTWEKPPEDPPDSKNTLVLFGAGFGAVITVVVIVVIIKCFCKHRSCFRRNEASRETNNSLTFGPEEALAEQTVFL

[5] = biological target: T4, Human PD-1 expressed on HEK 293 cells (human, UniProt Q15116 25-288); assay: flow cytometry on HEK 293 cells
T4 construct: also called hPD-1

[6] = biological target: T5, Recombinant mouse PD-L1 with a C-terminal human IgG tag (R&D Systems, 1019-B7), biotinylated (mouse, UniProt Q9EP73 19-238); assay: SPR BIAcore 3000, mouse PD-L1 Fc on streptavidin chip
T5 construct: also called mouse PD-L1 Fc

[7] = biological target: T1, Human PD-L1 expressed on cells; assay: cell-based or functional assay; remark: listed apart in the source
[8] = biological target: T1, Human PD-L1 expressed on cells; assay: cell-based or functional assay; remark: listed apart in the source
[9] = biological target: T6, Biotinylated hPD-L1-Fc-Avi (human, UniProt Q9NZQ7 19-238); assay: cell-based RBA, blocking of hPD-L1-Fc-Avi binding to HEK293 hPD-1 cells
Method: (§1) The ability of the Fcabs and mock mAb² to block hPD-1/hPD-L1 and hPD-L1/hCD80 interactions was tested in cell-based Receptor Binding Assays (RBA). […] The mix was incubated for another hour with HEK293 cells overexpressing either hPD-1 or hCD80.

[10] = biological target: T7, Recombinant human PD-1 with a C-terminal human IgG tag (R&D Systems, 1086-PD) (human, UniProt Q15116 25-167); assay: SPR Biacore, PD-1 coated on the chip, Fcab in flow
T7 construct: also called human PD-1 Fc; biotinylated PD-1 Fc
Text: (§2) The Fcab was then flowed over the chip at a 1000-fold concentration range. […] However, the Fcab did bind to PD-L1.

[11] = biological target: the molecule itself; assay: analytical ultracentrifugation, self-association of the Fcab (monomer and dimer peaks)
Method: To address this, the molecules were analysed via analytical ultracentrifugation using a Beckman Optima XL-1 instrument.
These domains were then purified using protein A to remove Fc domains, anti-his to remove enzymes and finally subjected to SEC to purify the monomeric fraction.

[12] = biological target: T6, Biotinylated hPD-L1-Fc-Avi; assay: cell-based RBA, blocking of hPD-L1-Fc-Avi binding to HEK293 hCD80 cells
Method: as §1

[13] = biological target: T8, Monomeric His-tagged human PD-L1 (Acro biosystems PD1-H5229) (human, UniProt Q9NZQ7 19-238); assay: SPR Biacore, captured on protein A, monomeric PD-L1-his in flow, 1:1 fit
T8 construct: also called hPD-L1-his; PD-L1-his
Method: The monomeric PD-L1-his human antigen was flowed over the chip in titrating concentrations at a high flow rate to minimise mass transport limitations. The KDS were measured using a 1:1 fitting analysis with no refractive index correction and Rₘₐₓ set to local.

[14] = biological target: T1, Human PD-L1 expressed on cells; assay: flow cytometry, HEK293 cells overexpressing the target, anti-human Fc 488
Method: (§3) Cell binding assays were performed by incubating Fcabs or mAb² proteins with either control HEK293 cells or HEK293 cells overexpressing hPD-L1 or cynomolgus PD-L1 cells for 1 hour at 4° C. Fcab/mAb binding was subsequently detected using an anti-human Fc 488 detection antibody. Fluorescent signal intensities were measured using a FACS canto.

[15] = biological target: T9, Cynomolgus PD-L1 expressed on HEK 293 cells (cynomolgus, UniProt Q9NZQ7 19-290 (human entry)); assay: as above
T9 construct: also called cell-expressed cynomolgus PD-L1
Method: as §3

[16] = biological target: T10, Monomeric cynomolgus PD-L1 (Acro Biosciences PD1-C52H4) (cynomolgus, UniProt Q9NZQ7 19-238 (human entry)); assay: SPR Biacore T200, Fcab captured on protein A chip, monomeric antigen in flow, 1:1 fit
T10 construct: also called cynomolgus monomeric PD-L1

[17] = biological target: T8, Monomeric His-tagged human PD-L1 (Acro …); assay: as above
[18] = biological target: T11, PD-L2 (R&D systems 1224-PL) (UniProt Q9BQ51 20-219); assay: SPR Biacore, PD-L2 coated on the chip, Fcab in flow
T11 sequence (looked up): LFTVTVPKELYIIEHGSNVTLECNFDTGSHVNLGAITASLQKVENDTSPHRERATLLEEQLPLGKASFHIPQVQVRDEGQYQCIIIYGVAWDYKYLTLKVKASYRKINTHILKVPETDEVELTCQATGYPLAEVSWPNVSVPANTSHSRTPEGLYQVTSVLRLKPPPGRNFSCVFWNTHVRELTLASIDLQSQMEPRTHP
Text: as §2

[19] = biological target: T1, Human PD-L1 expressed on cells; assay: cell-based or functional assay; remark: listed apart in the source
[20] = biological target: T6, Biotinylated hPD-L1-Fc-Avi; assay: cell-based RBA (Example 8.3), blocking of hPD-L1-Fc-Avi binding to HEK293 hPD-1 cells
Method: (§4) The ability of the mock mAb² to block hPD-1/hPD-L1 and hPD-L1/hCD80 interactions was tested in cell-based Receptor Blocking Assays (RBA). […] The mix was incubated for another hour with HEK293 cells overexpressing either hPD-1 or hCD80.

[21] = biological target: T1, Human PD-L1 expressed on cells; assay: cell-based or functional assay; remark: listed apart in the source
[22] = biological target: T8, Monomeric His-tagged human PD-L1 (Acro …); assay: SPR Biacore T200 as Example 5.1, anti-Fab capture, monomeric hPD-L1-his
Method: Fcab and mAb² binding to human PD-L1 was assessed by both BIAcore and in a cell binding assay. To measure the affinity of the clones to monomeric hPD-L1-his, the mAb² were captured using an anti-Fab antibody coated on a CM5 chip (GE 28-9582-20 AC) and Fcabs were captured using a Protein A chip (GE 29127556) using a Biacore T200 (GE). To minimize mass transport effects, the capture level was minimized to 200RU and a fast flow rate of 75 μl/min was used. […] The analysis of the data was done using the Biacore T200 evaluation software. Curves subtracted against a blank flow cell and a run with no antigen were analysed using a 1:1 fitting model with no bulk analysis and Rmax analysed locally.
The selected CH3 domain sequences were subcloned and expressed in “mock” (MSL109) mAb² format with the LALA mutation in the CH2 domain, as described in Example 4.2.1, for further screening.

[23] = biological target: T10, Monomeric cynomolgus PD-L1 (Acro …); assay: SPR Biacore T200, mock mAb^2 captured by anti-Fab on CM5, monomeric antigen in flow, 1:1 fit
[24] = biological target: T8, Monomeric His-tagged human PD-L1 (Acro …); assay: as above
[25] = biological target: T1, Human PD-L1 expressed on cells; assay: flow cytometry, HEK293 cells overexpressing the target, anti-human Fc 488; remark: listed apart in the source
Method: as §3, with “the mock” for “Fcabs or”, “mAb²” for “mAb² proteins”, “Mock mAb²” for “Fcab/mAb”, “Canto flow cytometer (BD Biosciences).” for “canto.”

[26] = biological target: T9, Cynomolgus PD-L1 expressed on HEK 293 …; assay: as above; remark: listed apart in the source
Method: as §3, with “the mock” for “Fcabs or”, “mAb²” for “mAb² proteins”, “Mock mAb²” for “Fcab/mAb”, “Canto flow cytometer (BD Biosciences).” for “canto.”

[27] = biological target: T6, Biotinylated hPD-L1-Fc-Avi; assay: cell-based RBA (Example 8.3), blocking of hPD-L1-Fc-Avi binding to HEK293 hCD80 cells
Method: as §4

T8 sequence (Q9NZQ7 19-238 limits assumed): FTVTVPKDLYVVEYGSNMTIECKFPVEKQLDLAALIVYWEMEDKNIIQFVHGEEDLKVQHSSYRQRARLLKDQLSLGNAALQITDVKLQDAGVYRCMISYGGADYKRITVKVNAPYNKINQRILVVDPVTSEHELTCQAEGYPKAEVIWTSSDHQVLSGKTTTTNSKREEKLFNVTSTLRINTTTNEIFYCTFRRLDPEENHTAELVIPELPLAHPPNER
T6 sequence (Q9NZQ7 19-238 limits assumed): as above
T1 sequence (Q9NZQ7 19-290 limits assumed): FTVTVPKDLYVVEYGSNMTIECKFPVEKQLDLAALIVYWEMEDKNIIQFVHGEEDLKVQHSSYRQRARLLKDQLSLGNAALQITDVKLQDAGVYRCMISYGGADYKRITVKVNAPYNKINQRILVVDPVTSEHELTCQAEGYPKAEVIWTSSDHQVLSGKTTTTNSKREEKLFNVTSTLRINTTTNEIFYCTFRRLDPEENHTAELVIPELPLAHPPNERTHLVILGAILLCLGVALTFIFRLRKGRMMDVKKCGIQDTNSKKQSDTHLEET
T9 sequence (Q9NZQ7 other isoform, or with tags, fused parts or gaps limits assumed): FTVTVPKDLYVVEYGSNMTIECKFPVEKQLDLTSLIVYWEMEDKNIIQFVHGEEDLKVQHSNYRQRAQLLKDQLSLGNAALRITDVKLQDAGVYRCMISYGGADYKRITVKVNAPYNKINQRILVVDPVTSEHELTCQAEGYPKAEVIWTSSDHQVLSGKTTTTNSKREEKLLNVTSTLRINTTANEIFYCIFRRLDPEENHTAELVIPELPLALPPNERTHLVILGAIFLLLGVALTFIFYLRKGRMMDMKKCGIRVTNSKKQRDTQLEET
T10 sequence (Q9NZQ7 other isoform, or with tags, fused parts or gaps limits assumed): as the sequence (Q9NZQ7 19-238 limits assumed) above, with A33T, A34S, S62N, R68Q, Q82R, F173L, T185A, T192I, H215L counted along it
T4 sequence (Q15116 25-288 limits assumed): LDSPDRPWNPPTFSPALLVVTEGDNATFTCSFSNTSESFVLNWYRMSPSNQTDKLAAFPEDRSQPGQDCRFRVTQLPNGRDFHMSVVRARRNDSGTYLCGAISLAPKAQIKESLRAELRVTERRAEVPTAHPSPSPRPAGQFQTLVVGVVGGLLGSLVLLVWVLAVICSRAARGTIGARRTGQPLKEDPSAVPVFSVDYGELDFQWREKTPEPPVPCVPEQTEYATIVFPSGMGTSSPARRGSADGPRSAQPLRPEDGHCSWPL
T5 sequence (Q9EP73 19-238 limits assumed): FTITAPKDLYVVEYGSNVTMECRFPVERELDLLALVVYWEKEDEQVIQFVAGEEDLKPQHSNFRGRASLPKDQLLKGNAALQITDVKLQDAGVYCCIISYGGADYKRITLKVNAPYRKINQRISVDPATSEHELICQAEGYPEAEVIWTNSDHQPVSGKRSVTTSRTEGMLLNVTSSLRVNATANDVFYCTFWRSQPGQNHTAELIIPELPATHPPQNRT
T7 sequence (Q15116 25-167 limits assumed): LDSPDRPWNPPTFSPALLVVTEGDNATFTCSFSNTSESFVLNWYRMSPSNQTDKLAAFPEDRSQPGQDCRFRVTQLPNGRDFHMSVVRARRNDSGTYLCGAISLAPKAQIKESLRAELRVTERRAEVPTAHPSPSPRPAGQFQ
Mouse PD-L1 expressed on HEK 293 cells, sequence (Q9EP73 19-290 limits assumed): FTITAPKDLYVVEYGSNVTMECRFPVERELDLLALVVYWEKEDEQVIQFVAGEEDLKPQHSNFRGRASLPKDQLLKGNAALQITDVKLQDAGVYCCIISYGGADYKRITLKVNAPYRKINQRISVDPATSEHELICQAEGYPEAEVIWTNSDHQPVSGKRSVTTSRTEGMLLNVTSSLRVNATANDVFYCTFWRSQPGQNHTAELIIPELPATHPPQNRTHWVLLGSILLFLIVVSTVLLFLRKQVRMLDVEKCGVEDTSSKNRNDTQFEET

B1: FS17-33-116/4420 mAb^2 (bispecific antibody, human IgG1, kappa, L234A L235A, V domains shown)
VH: EVKLDETGGGLVQPGRPMKLSCVASGFTFSDYWMNWVRQSPEKGLEWVAQIRNKPYNYETYYSDSVKGRFTISRDDSKSSVYLQMNNLRVEDMGIYYCTGSYYGMDYWGQGTSVTVSS
VL: DVVMTQTPLSLPVSLGDQASISCRSSQSLVHSNGNTYLRWYLQKPGQSPKVLIYKVSNRFSGVPDRFSGSGSGTDFTLKISRVEAEDLGVYFCSQSTHVPWTFGGGTKLEIKR
DO11.10 T cell activation assay EC50 [1]: < 1 nM

B2: Fcab FS17-33 (Example 1, soluble Fcab with truncated hinge) (designed binder)
chain: TCPPCPAPELLGGPSVFLFPPKPKDTLMISRTPEVTCVVVDVSHEDPEVKFNWYVDGVEVHNAKTKPREEQYNSTYRVVSVLTVLHQDWLNGKEYKCKVSNKALPAPIEKTISKAKGQPREPQVYTLPPSRDEQSGYWVSLTCLVKGFYPSDIAVEWESNGQPENNYKTTPPVLDSDGSFFLYSKLTVSNWRWQMGDFSCSVMHEALHNHYTQKSLSLSPGK
binding result [2]: no binding (tested: 1 µM)
binding result [3]: no binding (tested: 1 µM)
binding result [4]: no binding (tested: 1 µM)
binding result [5]: no binding (tested: 1 µM)
binding result [6]: no binding

B3: Fcab FS17-33-116 with LALA mutation (designed binder)
chain: TCPPCPAPEAAGGPSVFLFPPKPKDTLMISRTPEVTCVVVDVSHEDPEVKFNWYVDGVEVHNAKTKPREEQYNSTYRVVSVLTVLHQDWLNGKEYKCKVSNKALPAPIEKTISKAKGQPREPQVYTLPPSRDESGYWVSLTCLVKGFYPSDIVVEWESNGEPQYWAKTTPPVLDSDGSFFLYSKLTVSNWRWQMDDFSCSVMHEALHNHYTQKSLSLSPGK
DO11.10 T cell activation assay EC50 [7]: 0.28 nM
DO11.10 T cell activity assay EC50 [8]: 0.28 nM

B4: Fcab FS17-33-116 (designed binder)
chain: B3 chain with A10L, A11L
EC50 [9]: 9.5 nM
binding result [10]: no binding
Kd [11]: ~2000 nM
EC50 [12]: 8.4 nM
Kd [13]: 0.49 nM
koff [13]: 0.00044 s⁻¹
kon [13]: 1.5e+06 M⁻¹ s⁻¹
Kd [14]: 1.68 nM
Kd [15]: 0.665 nM
Kd [16]: 0.42 nM
Kd [17]: 0.33 nM
binding result [18]: no binding

B5: FS17-33-548AA/MSL109 (bispecific antibody, human IgG1, kappa, L234A L235A)
heavy: EEQVLESGGGLVKPGGSLRLSCAASGFTFSPYSVFWVRQAPGKGLEWVSSINSDSTYKYYADSVKGRFTISRDNAENSIFLQMNSLRAEDTAVYYCARDRSYYAFSSGSLSDYYYGLDVWGQGTTVIVSSASTKGPSVFPLAPSSKSTSGGTAALGCLVKDYFPEPVTVSWNSGALTSGVHTFPAVLQSSGLYSLSSVVTVPSSSLGTQTYICNVNHKPSNTKVDKKVEPKSCDKTHTCPPCPAPEAAGGPSVFLFPPKPKDTLMISRTPEVTCVVVDVSHEDPEVKFNWYVDGVEVHNAKTKPREEQYNSTYRVVSVLTVLHQDWLNGKEYKCKVSNKALPAPIEKTISKAKGQPREPQVYTLPPSRDEEGYWVSLTCLVKGFYPSDIAVEWESNGEPQYWAKTTPPVLDSDGSFFLYSKLTVSNWRWQLGDVFSCSVMHEALHNHYTQKSLSLSPGK
light: DIVMTQSPLSLSVTPGEPASISCRSSQSLLHTNGYNYLDWYVQKPGQSPQLLIYLASNRASGVPDRFSGSGSGTDFTLKISRVETEDVGVYYCMQALQIPRTFGQGTKVEIKRTVAAPSVFIFPPSDEQLKSGTASVVCLLNNFYPREAKVQWKVDNALQSGNSQESVTEQDSKDSTYSLSSTLTLSKADYEKHKVYACEVTHQGLSSPVTKSFNRGEC
DO11.10 EC50 [19]: 8.51 nM
EC50 [20]: 43.2 nM
DO11.10 EC50 [21]: 7.59 nM
Kd [22]: 0.43 nM
koff [22]: 0.000437 s⁻¹
Kd [23]: 0.45 nM
Kd [24]: 0.6 nM
EC50 [25]: 1.5 nM
EC50 [26]: 2.1 nM
EC50 [27]: 130 nM
